In article PMC10504324, “A microprotein N1DARP encoded by LINC00261 promotes Notch1 intracellular domain (N1ICD) degradation via disrupting USP10-N1ICD interaction to inhibit chemoresistance in Notch1-hyperactivated pancreatic cancer” (Cell Discovery, 2023):
Values joined by “and” are separate entries in the source; they are usually repeats but may differ in a detail not shown here. Equal entries are not always repeated. Bridge positions count the residues as written; N and C are the ends. Square brackets hold non-standard residues; d marks the D form. Ends that are not written are not given here. S5 = C=CCCC[C@](C)(N)C(=O)O

Assays:
[1] = test system: metastatic pancreatic cancers; conditions: cited from earlier work; for remission in clinical studies: γ-secretase inhibitors, metastatic pancreatic cancers
Description: The Notch pathway is active in a broad spectrum of human cancers, including breast, colorectal, lung, prostate, glioblastoma, and pancreatic cancer. Notch signaling is positively associated with pancreatic tumor initiation, progression, and drug resistance in both cell lines and genetic mutant mouse models[7],[8]. In preclinical models, pharmacological inhibition of Notch signaling by small molecules designed to affect HES1 transcriptional function (JI051 and JI130)[9] and natural agents targeting the Notch pathway, such as curcumin, genistein, quercetin, and sulforaphane, slowed tumor prol ...

[2] = molecular target: N1ICD (wild type; source not stated) (UniProt P46531); assay: co-IP followed by western blotting (band intensity); conditions: HEK293T, IgG control 0.00
[3] = molecular target: AH2, alpha-helical peptide 2 of N1DARP (human); assay: SPR; BIAcore T200 (GE Healthcare); dissociation constant calculated with BIA-evaluation software; which partner was immobilised is not stated
Capan1 = assay: IC50 assay, chemosensitivity to GEM; assay type: cell-based; conditions: Homo sapiens, CAPAN-1; Capan1, Vector; Fig. 5j
ANK domain of N1ICD = ANK domain of N1ICD (Homo sapiens, UniProt P46531); assay: SPR analysis, affinity for ANK domain; assay type: binding; conditions: mAH2 compared with AH2, Fig. S8E
Description: The binding kinetics between N1DARP or SAH-mAH2-5 and the indicated peptides were analyzed using a SPR assay with a BIAcore T200 instrument (GE Healthcare, Pittsburgh, PA, USA). The dissociation constant was calculated using BIA-evaluation software.
309 was determined using reversed phase HPLC with electrospray ionization mass spectrometric detection.
311 Supplementary Note S1. Generation and modification of N1DARP-derived stapled peptide SAH-
313 To evaluate the therapeutic potential of disrupting the N1ICD-USP10 interaction with N1DARP and
314 define a more druggable target, we simulated the tertiary structure of N1DARP using I-TASSAR, a
315 hierarchical server for protein structure prediction4, and identified two α-helical peptides (AH1 and
316 AH2) (Fig. S8A, left panel).
318 we constructed and purified six subdomains with α-helix secondary structure of ANK, designated from
320 S8B-S8D). To optimize the physicochemical properties of AH2, we first checked the amino acid
322 cancer cells to AH2; therefore, we tried amino acid substitution of Glu32 by Gln32. SPR analysis
324 mAH2 (Fig. S8E). Next, to identify the indispensable amino acids mediating mAH2 and ANK
325 interactions, we substituted each amino acid of mAH2 with Ala, followed by SPR analysis. The results
328 i + 4, or i + 7) and denoted them as stapled α-helices (SAHs). […]

[4] = molecular target: T1, ANK domain of Notch1 intracellular domain (N1ICD-ANK) (UniProt P46531 1927-2122); assay: SPR; BIAcore T200 (GE Healthcare); dissociation constant calculated with BIA-evaluation software; which partner was immobilised is not stated; conditions: both partners purified
T1 construct: Notch1, ankyrin repeat (ANK) domain of the intracellular domain; the numbers fit human NOTCH1 (2555 aa); also called ANK repeat

[5] = molecular target: T2, ANK domain of Notch4 intracellular domain (N4ICD-ANK) (UniProt Q99466 1633-1798); assay: as above; conditions: both partners purified
T2 construct: Notch4, ANK domain of the intracellular domain; position 1633-1798, length 166 aa printed
T2 sequence (looked up): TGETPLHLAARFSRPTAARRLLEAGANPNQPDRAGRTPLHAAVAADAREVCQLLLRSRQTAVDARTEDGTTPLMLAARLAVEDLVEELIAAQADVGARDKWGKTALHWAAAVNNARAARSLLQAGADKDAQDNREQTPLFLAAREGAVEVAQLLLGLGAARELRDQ

[6] = molecular target: T3, ANK domain of Notch3 intracellular domain (N3ICD-ANK) (UniProt Q9UM47 1838-2000); assay: as above; conditions: both partners purified
T3 construct: Notch3, ANK domain of the intracellular domain; position 1838-2000, length 163 aa printed
T3 sequence (looked up): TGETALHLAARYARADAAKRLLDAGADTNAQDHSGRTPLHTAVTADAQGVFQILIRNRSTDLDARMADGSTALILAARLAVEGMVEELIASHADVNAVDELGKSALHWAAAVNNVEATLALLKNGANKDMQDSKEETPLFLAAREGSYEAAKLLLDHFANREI

[7] = molecular target: T4, ANK domain of Notch2 intracellular domain (N2ICD-ANK) (UniProt Q04721 1827-2038); assay: as above; conditions: both partners purified
T4 construct: Notch2, ANK domain of the intracellular domain; position 1827-2038, length 212 aa printed
T4 sequence (looked up): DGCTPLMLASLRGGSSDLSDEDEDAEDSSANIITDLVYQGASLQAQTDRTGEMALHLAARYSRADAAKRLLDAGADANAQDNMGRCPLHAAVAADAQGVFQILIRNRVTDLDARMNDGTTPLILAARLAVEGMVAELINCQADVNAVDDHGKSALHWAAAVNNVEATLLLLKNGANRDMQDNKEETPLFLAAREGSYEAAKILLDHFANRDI

[8] = IP: Anti-Flag (N1DARP-Flag), blot: Myc
[9] = IP: Anti-Myc (N1ICD-Myc), blot: Flag

## CCC[C@H](N[C@H]1CCc2cc(F)cc(F)c2C1)C(=O)Nc1cn(C(C)(C)CNCC(C)(C)C)cn1 [PF-03084014]
[1]
  remission in clinical studies: no significant remission was observed

## wild-type N1DARP (overexpressed) L28A
[2]; [8]
  response: 1.01
[2]; [9]
  response: 0.87

## ANK3, subdomain of the ANK domain of N1ICD (from UniProt P46531 19-2555) (domain or fragment)
[3]
  Kd: 85800 nM

## O=C(O)CC[C@H]1CC[C@@](c2cc(F)ccc2F)(S(=O)(=O)c2ccc(Cl)cc2)CC1 [MK-0752]
[1]
  remission in clinical studies: no significant remission was observed

## wild-type N1DARP (overexpressed) G12A
[2]; [8]
  response: 0.91
[2]; [9]
  response: 0.93

## Nc1ccn([C@@H]2O[C@H](CO)[C@@H](O)C2(F)F)c(=O)n1 [GEM, gemcitabine]
Capan1
  IC50: 44 nM

## wild-type N1DARP (overexpressed) Y20A; Y34A
[2]; [8]
  response: 0
[2]; [9]
  response: 0

## wild-type N1DARP (overexpressed) Y20A
[2]; [8]
  response: 0.26
[2]; [9]
  response: 0.35

## wild-type N1DARP (overexpressed) Y34A
[2]; [8]
  response: 0.43
[2]; [9]
  response: 0.31

## CC(C)(C(=O)NCC(F)(F)C(F)(F)F)C(=O)N[C@@H]1C(=O)Nc2ccccc2-c2ccccc21 [RO4929097]
[1]
  remission in clinical studies: no significant remission was observed

## ANK4, subdomain of the ANK domain of N1ICD (from UniProt P46531 19-2555) (domain or fragment)
[3]
  Kd: 66100 nM

## wild-type N1DARP (overexpressed) D41A
[2]; [8]
  response: 0.87
[2]; [9]
  response: 1.07

## ANK1, subdomain of the ANK domain of N1ICD (from UniProt P46531 19-2555) (domain or fragment)
[3]
  Kd: 43.4 nM

## ANK5, subdomain of the ANK domain of N1ICD (from UniProt P46531 19-2555) (domain or fragment)
[3]
  Kd: 42800 nM

## ANK6, subdomain of the ANK domain of N1ICD (from UniProt P46531 19-2555) (domain or fragment)
[3]
  Kd: 64200 nM

## tarextumab: fully human IgG2 antibody that inhibits Notch2/3 receptors
[1]; metastatic pancreatic cancer, in combination with gemcitabine (GEM) and paclitaxel
  remission and tolerance, phase II study: remarkable remission and tolerance

## ANK2, subdomain of the ANK domain of N1ICD (from UniProt P46531 19-2555) (domain or fragment)
[3]
  Kd: 23300 nM

## mAH2: AH2 with amino acid substitution of Glu32 by Gln32 (YAKRIFYQLLSKQL)
ANK domain of N1ICD
  affinity for ANK after substitution of Glu32 by Gln32: comparable affinity

## YAKRI[S5]YQL[S5]SKQL (staple 6-10) [SAH-mAH2-3, stapled alpha-helix of mAH2]
[4]
  Kd: 10.5 nM

B1: mAH2, AH2 of N1DARP with Glu32 substituted by Gln32 (peptide)
peptide: YAKRIFYQLLSKQL
notes: N1DARP (41 aa, encoded by LINC00261) residues 20-33 with E32Q; also called modified AH2; substituted AH2; source: synthetic peptide (Chinese Peptide, Inc., Hangzhou; > 98% purity)
[4]
  Kd: 60.4 nM and 45.2 nM

B2: mAH2-14, alanine mutant of mAH2 (Leu33 to Ala) (peptide)
peptide: YAKRIFYQLLSKQA
notes: N1DARP residues 20-33 with E32Q and position 14 of the peptide (Leu33) to Ala; source: synthetic peptide (Chinese Peptide, Inc., Hangzhou; > 98% purity)
[4]
  Kd: 5960 nM

B3: mAH2-5, alanine mutant of mAH2 (peptide)
peptide: YAKRAFYQLLSKQL
notes: N1DARP residues 20-33 with E32Q and position 5 of the peptide (I24) to Ala; source: synthetic peptide (Chinese Peptide, Inc., Hangzhou; > 98% purity)
[4]
  Kd: 57.5 nM

B4: mAH2-4, alanine mutant of mAH2 (peptide)
peptide: YAKAIFYQLLSKQL
notes: N1DARP residues 20-33 with E32Q and position 4 of the peptide (R23) to Ala; source: synthetic peptide (Chinese Peptide, Inc., Hangzhou; > 98% purity)
[4]
  Kd: 74.5 nM

B5: mAH2-9, alanine mutant of mAH2 (Leu28 to Ala) (peptide)
peptide: YAKRIFYQALSKQL
notes: N1DARP residues 20-33 with E32Q and position 9 of the peptide (Leu28) to Ala; source: synthetic peptide (Chinese Peptide, Inc., Hangzhou; > 98% purity)
[4]
  Kd: 288 nM

B6: mAH2-11, alanine mutant of mAH2 (peptide)
peptide: YAKRIFYQLLAKQL
notes: N1DARP residues 20-33 with E32Q and position 11 of the peptide (S30) to Ala; source: synthetic peptide (Chinese Peptide, Inc., Hangzhou; > 98% purity)
[4]
  Kd: 83.9 nM

B7: mAH2-13, alanine mutant of mAH2 (peptide)
peptide: YAKRIFYQLLSKAL
notes: N1DARP residues 20-33 with position 13 of the peptide (residue 32: Glu in N1DARP, Gln in mAH2) to Ala; source: synthetic peptide (Chinese Peptide, Inc., Hangzhou; > 98% purity)
[4]
  Kd: 99 nM

B8: mAH2-12, alanine mutant of mAH2 (peptide)
peptide: YAKRIFYQLLSAQL
notes: N1DARP residues 20-33 with E32Q and position 12 of the peptide (K31) to Ala; source: synthetic peptide (Chinese Peptide, Inc., Hangzhou; > 98% purity)
[4]
  Kd: 78.2 nM

B9: mAH2-3, alanine mutant of mAH2 (peptide)
peptide: YAARIFYQLLSKQL
notes: N1DARP residues 20-33 with E32Q and position 3 of the peptide (K22) to Ala; source: synthetic peptide (Chinese Peptide, Inc., Hangzhou; > 98% purity)
[4]
  Kd: 51.1 nM

B10: mAH2-8, alanine mutant of mAH2 (peptide)
peptide: YAKRIFYALLSKQL
notes: N1DARP residues 20-33 with E32Q and position 8 of the peptide (Q27) to Ala; source: synthetic peptide (Chinese Peptide, Inc., Hangzhou; > 98% purity)
[4]
  Kd: 87.4 nM

B11: mAH2-1, alanine mutant of mAH2 (peptide)
peptide: AAKRIFYQLLSKQL
notes: N1DARP residues 20-33 with E32Q and position 1 of the peptide (Y20) to Ala; source: synthetic peptide (Chinese Peptide, Inc., Hangzhou; > 98% purity)
[4]
  Kd: 96.1 nM

B12: mAH2-6, alanine mutant of mAH2 (peptide)
peptide: YAKRIAYQLLSKQL
notes: N1DARP residues 20-33 with E32Q and position 6 of the peptide (F25) to Ala; source: synthetic peptide (Chinese Peptide, Inc., Hangzhou; > 98% purity)
[4]
  Kd: 63.6 nM

B13: mAH2-10, alanine mutant of mAH2 (peptide)
peptide: YAKRIFYQLASKQL
notes: N1DARP residues 20-33 with E32Q and position 10 of the peptide (L29) to Ala; source: synthetic peptide (Chinese Peptide, Inc., Hangzhou; > 98% purity)
[4]
  Kd: 55.5 nM

B14: AH2, alpha-helical peptide 2 of N1DARP (peptide)
peptide: YAKRIFYQLLSKEL
notes: N1DARP, 41-aa microprotein encoded by LINC00261 (ORF12); source: synthetic peptide (Chinese Peptide, Inc., Hangzhou; > 98% purity); 'purified AH2 peptide'
[4]
  Kd: 60.4 nM

## YAKRI[S5]YQLLSK[S5]L (staple 6-13) [SAH-mAH2-5, N1DARP-derived stapled peptide]
[5]
  Kd: 35.2 nM
[6]
  Kd: 69 nM
[7]
  Kd: 539 nM
[4]
  Kd: 0.898 nM

## Y[S5]KRI[S5]YQLLSKQL (staple 2-6) [SAH-mAH2-2, stapled alpha-helix of mAH2]
[4]
  Kd: 97.7 nM

## [S5]AKRIFY[S5]LLSKQL (staple 1-8) [SAH-mAH2-4, stapled alpha-helix of mAH2]
[4]
  Kd: 25.8 nM

## [S5]AKR[S5]FYQLLSKQL (staple 1-5) [SAH-mAH2-1, stapled alpha-helix of mAH2]
[4]
  Kd: 134 nM

B15: AH1, alpha-helical peptide 1 of N1DARP (peptide)
peptide: LLEKKRQY
notes: N1DARP, 41-aa microprotein encoded by LINC00261 (ORF12); source: synthetic peptide (Chinese Peptide, Inc., Hangzhou; > 98% purity)
[4]
  Kd: 213 nM
